Experimental data from the DeepSol protein solubility set.

Experiment: soluble on expression in E. coli; label from the status in PepcDB or PDB records

Row | Sequence | soluble on expression in E. coli
1 | MNNVLLEVKDLETSLKINNEWLATVENISFELSKGEVLGIVGESGCGKSILSKSIIKLLPEKISKLSNGEVIFDGKRIDTLNEKQLLDIRGNDIAMIFQEPMTALNPVFTIKNQLVESIKSHKKISKKEANKLAKDLLKKVGIARQDEILNSYPHQLSGGMRQRVMIAMAISCSPKLLIADEPTTALDVTIQAQILDLLKELQKETQMAIMMITHDLSVVAEFCDKVLVMYAGQIVEFGGIKEILHNPKHPYTQKLLSTIPKLKEEQKRLETIEGIVPSIQAFHVNKCRFANRCNKKLDICNNQSPKMHVCEDVIVRCHLYKNEYKEI | not soluble
2 | MNPFIVADAESCIGCRSCEVACVVAHHEGQFPDKPEYFTPRVKVFKGDQCATAVFCHHCEDAPCASTCPNGAIVELNNRVQVIQEKCIGCKTCMIACPFGMMTVVTETVQPASHRLADVYRRTEAQKCDLCLDQPDGPACIKTCPTQALTLVDQQYLLHQQQQKRQHMALNEHNGRLFSRAVVQAASASSNKSIRDATPVNLLQRPRAPRLEPKKIPLAERKTGFAEIYLPFTESQIHEQAERCLECGDKTICQWTCPLHNAIPKWISLAHQGRIHEAAELSHQTSSLPEVCGRVCPQDRLCEQSCTLNDHDGAVTIGQIERHITETALATGWRPDLSQVKPSGKRVAIIGAGPAGLGCADILVRNGITPVVFDRYPEIGGLLTFGIPAFKLEKSVMTRRREIFTEMGVEFCLNTEIGRDITMENLLHDFDALFLGVGTYRSMRSGLENEDAQGVYDALPFLIGNTQHLMGYTANGAHPYVSMQDQRVVVLGGGDTAMDCVRTSLRQGASRVVCAYRRDEKNMPGSKREVKNAREEGAEFMFNLQPMSIVVDESGQVTGIKMVRTEMGQADAQGRRQALPITGSEHLIPADAVIMAFGFSPHRMSWLAEHNVVLDKHGRVVAPTISGYPYQTSNPKIFAGGDIVRGADLIVTAIAEGRKAAESIAYYLNVL | not soluble
3 | MNPFTYSKPTDITAAVNLSGPATRFIAGGTNLLDLMKENVATPEHLIDITGLPLREVSETASGGLMIGALVSNADLAYHPLIEARYPLLSKAVLAGASPQLRNMASTGGNLLQRTRCYYFYDTGVPCNKREPGSGCPAREGLNRIHAILGASDECVATHPSDMCVALAALEAVVHVEGRAGRRTIEFADFHRLPGDAPQRDNQLADDELIIAVELPAQGFASHNAYLKIRDRASYAFALISVAAAIDLDGDVVRDVRLALGGVAHKPWRDKAVEALLIGKPVTREHFAAAADAMLEDAKPLEHNGFKVRLARRAIIRALSDAATGGSAL | not soluble
4 | MNPIASNSAVTLHFTIKLKDGSVADSTHNQGKPAKLVMGDGSLSPNFEQCLLGMLPGEKKSVALAAQDAFGAPNPDHVHYMDRSKFLGGDLQLEVGTIMAFSGPDGMEIPGIITEIAGDSVTVDFNHPLAGQDITFDVEILSVE | not soluble
5 | MNPIHDRTSDYHKYLKVKQGDSDLFKLTVSDKRYIWYNPDPKERDSYECGEIVSETSDSFTFKTVDGQDRQVKKDDANQRNPIKFDGVEDMSELSYLNEPAVFHNLRVRYNQDLIYTYSGLFLVAVNPFKRIPIYTQEMVDIFKGRRRNEVAPHIFAISDVAYRSMLDDRQNQSLLITGESGAGKTENTKKVIQYLASVAGRNQANGSGVLEQQILQANPILEAFGNAKTTRNNNSSRFGKFIEIQFNNAGFISGASIQSYLLEKSRVVFQSETERNYHIFYQLLAGATAEEKKALHLAGPESFNYLNQSGCVDIKGVSDSEEFKITRQAMDIVGFSQEEQMSIFKIIAGILHLGNIKFEKGAGEGAVLKDKTALNAASTVFGVNPSVLEKALMEPRILAGRDLVAQHLNVEKSSSSRDALVKALYGRLFLWLVKKINNVLCQERKAYFIGVLDISGFEIFKVNSFEQLCINYTNEKLQQFFNHHMFKVEQEEYLKEKINWTFIDFGLDSQATIDLIDGRQPPGILALLDEQSVFPNATDNTLITKLHSHFSKKNAKYEEPRFSKTEFGVTHYAGQVMYEIQDWLEKNKDPLQQDLELCFKDSSDNVVTKLFNDPNIASRAKKGANFITVAAQYKEQLASLMATLETTNPHFVRCIIPNNKQLPAKLEDKVVLDQLRCNGVLEGIRITRKGFPNRIIYADFVKRYYLLAPNVPRDAEDSQKATDAVLKHLNIDPEQYRFGITKIFFRAGQLARIEEAREPN | soluble
6 | MNPILAMLKENNISNEQINELFQTLTQNPLAAMATLAQLGLPQDKMQMVLAQVMQNPALIKQAVEELGLDFAKVEAAKAKLQQ | not soluble
